Experimental data taken from patent US20160355591A1.
Read-outs that look alike come from different tables or passages of the source.

What was measured:
[1] = target: T1, CD20 on dog lymphocytes and dog lymphoma cells (dog) (UniProt Q3C2E2); assay: flow cytometry, canine lymphoma aspirate 150836; none 4.5
T1 sequence (looked up): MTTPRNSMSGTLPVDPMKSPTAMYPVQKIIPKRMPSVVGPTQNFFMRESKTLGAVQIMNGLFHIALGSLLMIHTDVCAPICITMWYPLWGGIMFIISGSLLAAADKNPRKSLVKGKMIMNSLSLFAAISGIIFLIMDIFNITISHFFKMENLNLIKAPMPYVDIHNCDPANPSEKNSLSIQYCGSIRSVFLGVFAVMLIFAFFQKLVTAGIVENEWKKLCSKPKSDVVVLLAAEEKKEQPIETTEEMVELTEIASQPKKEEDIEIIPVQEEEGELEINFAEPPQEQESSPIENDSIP

[2] = target: T1, CD20 on dog lymphocytes and dog lymphoma cells (dog); assay: flow cytometry, dog lymphoma aspirate; none 4.48
[3] = target: T2, CD20 on human cells (human) (UniProt P11836); assay: indirect flow cytometry, Raji cells, FITC-GAH Fc 2nd Ab; none 6.9
T2 sequence (looked up): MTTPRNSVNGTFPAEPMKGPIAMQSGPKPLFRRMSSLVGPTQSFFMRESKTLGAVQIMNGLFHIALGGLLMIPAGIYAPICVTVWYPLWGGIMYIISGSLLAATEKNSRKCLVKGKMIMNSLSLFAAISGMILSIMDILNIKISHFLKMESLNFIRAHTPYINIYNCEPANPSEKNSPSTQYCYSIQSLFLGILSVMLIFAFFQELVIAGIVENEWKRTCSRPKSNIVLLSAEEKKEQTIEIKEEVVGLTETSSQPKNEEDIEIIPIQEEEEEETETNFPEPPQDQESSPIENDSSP

[4] = target: T2, CD20 on human cells (human); assay: indirect flow cytometry, Ramos cells, FITC-GAH Fc 2nd Ab; none 3.1
[5] = target: T2, CD20 on human cells (human); assay: indirect flow cytometry, Namalwa cells, FITC-GAH Fc 2nd Ab; none 2.6
[6] = target: T2, CD20 on human cells (human); assay: indirect FACS, WSU-FSCCL cells, FITC-GAH Fc 2nd Ab; none 2.6
[7] = target: T1, CD20 on dog lymphocytes and dog lymphoma cells (dog); assay: flow cytometry, dog lymphoma aspirate; none 3.24
[8] = target: T2, CD20 on human cells (human); assay: indirect flow cytometry, RL cells, FITC-GAH Fc 2nd Ab; none 2.4
[9] = target: T2, CD20 on human cells (human); assay: indirect FACS, SU-DHL-6 cells, FITC-GAH Fc 2nd Ab; none 4.6
[10] = target: T2, CD20 on human cells (human); assay: indirect flow cytometry, Daudi cells, FITC-GAH Fc 2nd Ab; none 3.2
[11] = target: T2, CD20 on human cells (human); assay: indirect flow cytometry, Namalwa cells, FITC-GAH 2nd Ab; none 2.52
[12] = target: human serum complement; assay: cell-based or functional assay
[13] = target: T1, CD20 on dog lymphocytes and dog lymphoma cells (dog); assay: flow cytometry, canine lymphoma aspirate 150836; none 3.2
[14] = target: T2, CD20 on human cells (human); assay: indirect FACS, Raji cells, FITC-GAH Fc 2nd Ab; none 6.8
[15] = target: T2, CD20 on human cells (human); assay: indirect FACS, Ramos cells, FITC-GAH Fc 2nd Ab; none 3.1
[16] = target: T2, CD20 on human cells (human); assay: indirect FACS, Daudi cells, FITC-GAH Fc 2nd Ab; none 3.1
[17] = target: T2, CD20 on human cells (human); assay: indirect flow cytometry, WSU-FSCCL cells, FITC-GAH Fc 2nd Ab; none 2.7
[18] = target: T2, CD20 on human cells (human); assay: indirect FACS, Namalwa cells, FITC-GAH Fc 2nd Ab; none 2.5
[19] = target: T2, CD20 on human cells (human); assay: indirect flow cytometry, SU-DHL-6 cells, FITC-GAH Fc 2nd Ab; none 4.6
[20] = target: CD74 on human cells (human) (UniProt P04233); assay: 697 (ALL) cells; no mAb 4.9
[21] = target: CD74 on human cells (human) (UniProt P04233); assay: Granta-519 (MCL) cells; no mAb 15.3
[22] = target: CD74 on human cells (human) (UniProt P04233); assay: Kasumi-3 (AML) cells; no mAb 9.6
[23] = target: CD74 on human cells (human) (UniProt P04233); assay: HC-1 (hairy cell leukemia) cells; no mAb 4.8
[24] = target: CD74 on human cells (human) (UniProt P04233); assay: REH (ALL) cells; no mAb 3.9
[25] = target: CD74 on dog lymphocytes and dog lymphoma cells (dog); assay: flow cytometry, canine lymphoma aspirate 150836; none 3.4
[26] = target: CD74 on human cells (human) (UniProt P04233); assay: MN60 (ALL) cells; no mAb 8.1
[27] = target: CD74 on human cells (human) (UniProt P04233); assay: GDM-1 (AML) cells; no mAb 16.8
[28] = target: CD74 on human cells (human) (UniProt P04233); assay: WAC (CLL) cells; no mAb 15.8
[29] = target: CD74 on human cells (human) (UniProt P04233); assay: indirect flow cytometry, Namalwa cells, FITC-GAM 2nd Ab; none 2.91
[30] = target: CD74 on dog lymphocytes and dog lymphoma cells (dog); assay: flow cytometry, dog lymphoma aspirate; none 3.37
[31] = target: CD74 on human cells (human) (UniProt P04233); assay: RS4;11 (ALL) cells; no mAb 6.4
[32] = target: CD74 on human cells (human) (UniProt P04233); assay: MEC-1 (CLL) cells; no mAb 4.7
[33] = target: CD74 on human cells (human) (UniProt P04233); assay: K562 (CML) cells; no mAb 3.2
[34] = target: CD74 on human cells (human) (UniProt P04233); assay: Jeko-1 (MCL) cells; no mAb 14.3
[35] = target: CD74 on dog lymphocytes and dog lymphoma cells (dog); assay: flow cytometry, canine lymphoma aspirate 150836; none 3.9
[36] = target: CD74 on human cells (human) (UniProt P04233); assay: Kasumi-1 (AML) cells; no mAb 18.2
[37] = target: CD74 on dog lymphocytes and dog lymphoma cells (dog); assay: flow cytometry, dog lymphoma aspirate; none 3.85
[38] = target: HLA-DR (human leukocyte antigen-DR) on human lymphoma and leukemia cells and human lymphocytes (human); assay: indirect flow cytometry, Namalwa cells, FITC-GAM 2nd Ab; none 2.91; control antibody (anti-CEA)
[39] = target: human serum complement; assay: cell-based or functional assay; remark: listed apart in the source

Chain of CD74 on human cells (human) (P04233 whole entry): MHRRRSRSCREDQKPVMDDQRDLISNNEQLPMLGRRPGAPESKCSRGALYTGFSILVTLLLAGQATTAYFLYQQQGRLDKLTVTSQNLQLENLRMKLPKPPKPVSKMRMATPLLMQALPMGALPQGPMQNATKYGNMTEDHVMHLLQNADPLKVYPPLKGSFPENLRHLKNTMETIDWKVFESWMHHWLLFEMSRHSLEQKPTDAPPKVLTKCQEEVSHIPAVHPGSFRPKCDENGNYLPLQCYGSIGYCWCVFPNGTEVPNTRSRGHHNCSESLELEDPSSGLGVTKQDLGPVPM

B1: hA20 (veltuzumab, humanized anti-CD20 IgG1) (antibody, INN chains, looked up, V domains shown, part only)
VH: QVQLQQSGAEVKKPGSSVKVSCKASGYTFTSYNMHWVKQAPGQGLEWIGAIYPGMGDTSYNQKFKGKATLTADESTNTAYMELSSLRSEDTAFYYCARSTYYGGDWYFDVWGQGTTVTVSS
VL: DIQLTQSPSSLSASVGDRVTMTCRASSSVSYIHWFQQKPGKAPKPWIYATSNLASGVPVRFSGSGSGTDYTFTISSLQPEDIATYYCQQWTSNPPTFGGGTKLEIKR
**Q.** How did the % Positive [1] turn out when B1 was run?
**A.** The % Positive was 4%.

**Q.** And the % Positive [2]?
**A.** The % Positive was 3.96%.

**Q.** And the geometric mean fluorescence [3]?
**A.** Its geometric mean fluorescence is 267.

**Q.** And the geometric mean fluorescence [4]?
**A.** Its geometric mean fluorescence is 204.

**Q.** And the geometric mean fluorescence [5]?
**A.** Its geometric mean fluorescence is 10.1.

**Q.** What about the geometric mean fluorescence [6] of the same binder?
**A.** The geometric mean fluorescence was 8.91.

**Q.** What about the mean FL [7] of the same binder?
**A.** Its mean FL is 3.25.

**Q.** And the geometric mean fluorescence [8]?
**A.** The geometric mean fluorescence was 128.

**Q.** And the geometric mean fluorescence [9]?
**A.** The geometric mean fluorescence was 1200.

**Q.** And the geometric mean fluorescence [10]?
**A.** Its geometric mean fluorescence is 241.

**Q.** What about the geometric mean fluorescence [11] of the same binder?
**A.** Its geometric mean fluorescence is 6.28.

**Q.** What about the complement-mediated cytotoxic effect on Daudi cells (CDC, resazurin viability), EC50 [12] of the same binder?
**A.** The complement-mediated cytotoxic effect on Daudi cells (CDC, resazurin viability), EC50 was 0.66 nM.

**Q.** And the mean FL [13]?
**A.** Its mean FL is 3.3.

**Q.** And the geometric mean fluorescence [14]?
**A.** Its geometric mean fluorescence is 267.

**Q.** What about the geometric mean fluorescence [15] of the same binder?
**A.** The geometric mean fluorescence was 204.

**Q.** What about the geometric mean fluorescence [16] of the same binder?
**A.** The geometric mean fluorescence was 241.

**Q.** What about the geometric mean fluorescence [17] of the same binder?
**A.** The geometric mean fluorescence was 8.9.

**Q.** And the geometric mean fluorescence [18]?
**A.** Its geometric mean fluorescence is 10.1.

**Q.** And the geometric mean fluorescence [19]?
**A.** The geometric mean fluorescence was 1200.

B2: LL1 (murine anti-human CD74 mAb) (antibody, from a related filing, V domains shown)
VH: QIQLVQSGPELKKPGETVKVTCKTSGYTFTNYGVNWIKQTPGEGLQWMGWINPNTGEPTFDDDFKGRFAFSLESSASTAFLQISNLKNEDMGTYFCSRSRGKNEAWFAYWGQGTLVTVSE
VL: DVVMTQTPLSLPVSLGDQASISCRSSQSLVHRNGNTYLHWYLQKPGQSPKLLIYTVSNRFSGVPDRFSGSGSGTDFTLKISRVEAEDLGLYFCSQSSHVPPTFGAGTKLEI
**Q.** How did the mean FL [20] turn out when B2 was run?
**A.** The mean FL was 20.6.

**Q.** What about the mean FL [21] of the same binder?
**A.** Its mean FL is 50.8.

**Q.** What about the mean FL [22] of the same binder?
**A.** Its mean FL is 18.4.

**Q.** What about the mean FL [23] of the same binder?
**A.** The mean FL was 36.7.

**Q.** And the mean FL [24]?
**A.** Its mean FL is 61.1.

**Q.** And the mean FL [25]?
**A.** Its mean FL is 4.

**Q.** What about the mean FL [26] of the same binder?
**A.** The mean FL was 25.9.

**Q.** And the mean FL [27]?
**A.** The mean FL was 69.5.

**Q.** And the mean FL [28]?
**A.** Its mean FL is 43.6.

**Q.** What about the geometric mean fluorescence [29] of the same binder?
**A.** The geometric mean fluorescence was 17.3.

**Q.** What about the mean FL [30] of the same binder?
**A.** Its mean FL is 4.01.

**Q.** What about the mean FL [31] of the same binder?
**A.** Its mean FL is 24.3.

**Q.** And the mean FL [32]?
**A.** Its mean FL is 44.7.

**Q.** And the mean FL [33]?
**A.** Its mean FL is 7.

**Q.** What about the mean FL [34] of the same binder?
**A.** Its mean FL is 32.7.

**Q.** What about the % Positive [35] of the same binder?
**A.** The % Positive was 6.7%.

**Q.** What about the mean FL [36] of the same binder?
**A.** The mean FL was 23.8.

**Q.** What about the % Positive [37] of the same binder?
**A.** The % Positive was 6.69%.

B3: MN-14 (murine anti-carcinoembryonic antigen mAb) (antibody, from a related filing, V domains shown)
VH: EVKLLESGGGLVQSGGSLKLSCAASGFDFTTYWMSWVRQAPGKGLEWIGEIHPDSSTINYAPSLKDKFIVSRDNAKNTLYLQMSKVRSEDTALYYCASLYFGFPWFAYWGQGTPVTVSA
VL: EIQLTQSHKMMSTSVGDRVSITCKASQDVGTSVAWYQQRPGQSPKLLIYWTSTRHTGVPDRFTGSVSGTDFTLTITNVQSEDLADYFCQQYSLYRSFGGGTKLEIK
**Q.** For B3, which geometric mean fluorescence [38] is on record?
**A.** The geometric mean fluorescence was 3.32.

B4: hL243 (humanized L243 anti-HLA-DR antibody, IgG1/K isotype) (antibody, V domains shown)
VH: QVQLQQSGSELKKPGASVKVSCKASGFTFTNYGMNWVKQAPGQGLKWMGWINTYTREPTYADDFKGRFAFSLDTSVSTAYLQISSLKADDTAVYFCARDITAVVPTGFDYWGQGSLVTVSS
VL: DIQLTQSPSSLSASVGDRVTITCRASENIYSNLAWYRQKPGKAPKLLVFAASNLADGVPSRFSGSGSGTDYTFTISSLQPEDIATYYCQHFWTTPWAFGGGTKLQIKR
**Q.** For B4, which complement-mediated cytotoxic effect on Daudi cells (CDC, resazurin viability), EC50 [39] is on record?
**A.** Its complement-mediated cytotoxic effect on Daudi cells (CDC, resazurin viability), EC50 is 2.6 nM.
